Results on 3 substances are retold here after article PMC3919270.

For assay [1], the target named is Rab5 (UniProt P51148).
The target in assay [2] is Rab1/Ypt1 (UniProt P01123).
Sequence of UniProt P01123 (P01123 whole entry): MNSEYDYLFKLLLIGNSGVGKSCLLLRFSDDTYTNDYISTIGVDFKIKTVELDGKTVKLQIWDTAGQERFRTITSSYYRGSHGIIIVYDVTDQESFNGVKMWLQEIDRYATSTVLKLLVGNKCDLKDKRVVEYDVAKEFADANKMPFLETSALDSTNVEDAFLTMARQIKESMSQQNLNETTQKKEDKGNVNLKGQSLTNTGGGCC

Sequence of UniProt P51148 (P51148 whole entry): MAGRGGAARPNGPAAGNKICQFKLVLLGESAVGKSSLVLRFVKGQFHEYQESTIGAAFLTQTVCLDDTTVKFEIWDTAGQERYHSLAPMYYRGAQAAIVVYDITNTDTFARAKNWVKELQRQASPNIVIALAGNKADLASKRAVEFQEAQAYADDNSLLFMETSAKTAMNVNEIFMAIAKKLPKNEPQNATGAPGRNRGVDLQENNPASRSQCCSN

Substance Rabex5 (enzyme) gave a catalytic efficiency (kcat/Km) of Rabex-mediated nucleotide exchange (release of Mant-GDP from Rab5) in assay [1] of 25000 M⁻¹ s⁻¹.
As to “TRAPP Bet3 E192A/D193A mutant (from UniProt P36149 1-193) (complex)”, in assay [2], the GEF activity towards Rab1 (release of Mant-GDP), reduction against wild type TRAPP was found to be 4 fold.
On to “TRAPPI-complex (from UniProt P36149 1-193)”, for which the catalytic efficiency (kcat/Km) of TRAPP-stimulated GDP-release from Rab1/Ypt1 (release of Mant-GDP) in assay [2] came to 130000 M⁻¹ s⁻¹.
